Measurements taken from article PMC5785358, “The STENOFOLIA gene from Medicago alters leaf width, flowering time and chlorophyll content in transgenic wheat”.

T1: MBP-STF S3 (Medicago truncatula, UniProt G0ZGT3 1-90)
T1 sequence: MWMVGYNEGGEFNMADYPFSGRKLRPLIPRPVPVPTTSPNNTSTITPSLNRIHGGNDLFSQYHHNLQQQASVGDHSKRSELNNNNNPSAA

T2: MBP-STF full length (STENOFOLIA) (Medicago truncatula, UniProt G0ZGT3 1-358)
T2 sequence: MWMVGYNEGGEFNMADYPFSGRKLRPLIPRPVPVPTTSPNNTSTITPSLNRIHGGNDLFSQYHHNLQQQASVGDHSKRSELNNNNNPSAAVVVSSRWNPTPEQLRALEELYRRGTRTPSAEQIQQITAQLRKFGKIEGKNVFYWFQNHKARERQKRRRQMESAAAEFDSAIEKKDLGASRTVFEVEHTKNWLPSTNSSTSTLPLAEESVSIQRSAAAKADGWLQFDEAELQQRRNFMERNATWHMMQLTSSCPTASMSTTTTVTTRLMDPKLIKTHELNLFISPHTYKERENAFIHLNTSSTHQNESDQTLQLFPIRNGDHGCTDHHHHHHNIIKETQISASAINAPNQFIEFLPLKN

T3: MBP-STF S2 (Medicago truncatula, UniProt G0ZGT3 263-358)
T3 sequence: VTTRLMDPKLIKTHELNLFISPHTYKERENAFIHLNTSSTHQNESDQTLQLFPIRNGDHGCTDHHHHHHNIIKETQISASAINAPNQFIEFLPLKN

T4: MBP-STF S1 (Medicago truncatula, UniProt G0ZGT3 1-262)
T4 sequence: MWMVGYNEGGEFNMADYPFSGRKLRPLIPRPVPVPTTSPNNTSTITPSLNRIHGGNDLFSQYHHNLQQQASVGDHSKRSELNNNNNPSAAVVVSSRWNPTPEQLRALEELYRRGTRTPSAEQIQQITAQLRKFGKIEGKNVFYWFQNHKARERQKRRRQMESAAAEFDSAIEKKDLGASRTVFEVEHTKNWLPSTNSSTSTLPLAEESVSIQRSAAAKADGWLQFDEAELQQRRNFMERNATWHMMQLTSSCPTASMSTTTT


How the values were obtained:
Experiment in all cases: EMSA; 10 mM Tris pH 7.5, 50 mM KCl, 1 mM DTT, 2.5% glycerol, 0.05% NP-40, 5 mM MgCl2, 0.5 mM EDTA, 5 ng/uL poly(dI.dC), 1 ug protein, 100 fmol probe, room temperature 40 min
Details in all cases: protein: recombinant; tags: MBP (N-terminal, pMAL-c2X); label: 3' biotin; blunt
MBP-STF S3 = molecular target: T1, MBP-STF S3
[1] = molecular target: T2, MBP-STF full length (STENOFOLIA)
MBP-STF S2 = molecular target: T3, MBP-STF S2
MBP-STF S1 = molecular target: T4, MBP-STF S1

| Binder | binding result (MBP-STF S3) | binding result [1] | binding result (MBP-STF S2) | binding result (MBP-STF S1) |
| --- | --- | --- | --- | --- |
| TaACC-D1 probe (dsDNA) DNA 1: TTCTTCCAGGTGAATACACCACAGTAGTAATATGGCATAATCTGACAAGATGAATCTCCTCATCGACCCATCCTTAATGTTGATTTGCTCTCTCTCTGTTTTCGGCGGTGCGTGCAGGTTCTGGACCACGGCATCTC DNA 2: GAGATGCCGTGGTCCAGAACCTGCACGCACCGCCGAAAACAGAGAGAGAGCAAATCAACATTAAGGATGGGTCGATGAGGAGATTCATCTTGTCAGATTATGCCATATTACTACTGTGGTGTATTCACCTGGAAGAA | no binding | binds |  |  |
| TaKN1 probe (TaKN-B1 sequence printed) (dsDNA) DNA 1: TACTGCAGTATTGCCCTCCAGCTTTTTCCTCTCGCTCCCCATCTCCTTCCCTCTAATGATAGCTTAGAGAGAGAAGGAGAAAAGGCTATTCCGCTCAAGGCAAGGCAGGCAGGTACCCTTCTCCTTCCCCAAACCCAAACCCTTTTTCTCTTTCTCTCCGCCCAAGAACTTCACCTCAAGCTCAATCCGTCT DNA 2: AGACGGATTGAGCTTGAGGTGAAGTTCTTGGGCGGAGAGAAAGAGAAAAAGGGTTTGGGTTTGGGGAAGGAGAAGGGTACCTGCCTGCCTTGCCTTGAGCGGAATAGCCTTTTCTCCTTCTCTCTCTAAGCTATCATTAGAGGGAAGGAGATGGGGAGCGAGAGGAAAAAGCTGGAGGGCAATACTGCAGTA |  | binds |  |  |
| Ta6SFT-A1 probe (dsDNA) DNA 1: ACTCCACGCACTAACTTTTTTAATAAGGTCTTCTGTGTGGGGAAAAAGACGGGATCTCTCTCTCTAGACATAATCAAAAGGGATTGTTTAACTCACACCAAATTTGGAGGAAAACTTTGACAGCAAAACAGGGGAAAACAGAGTTTCCATAGCGGGTTGGGGGTTCACTTCACAGTGGCGTAGATTGGA DNA 2: TCCAATCTACGCCACTGTGAAGTGAACCCCCAACCCGCTATGGAAACTCTGTTTTCCCCTGTTTTGCTGTCAAAGTTTTCCTCCAAATTTGGTGTGAGTTAAACAATCCCTTTTGATTATGTCTAGAGAGAGAGATCCCGTCTTTTTCCCCACACAGAAGACCTTATTAAAAAAGTTAGTGCGTGGAGT | no binding | binds | no binding | binds |
| TaACC-B1 probe (dsDNA) DNA 1: TTCTTCCAGGTGAATACACAGCACTAACATGGCATAATCTGACAGGATAAATCTCCTTATCGATCTATCCTTAATGCTCATCTGCTCTCTCTCTCTCTCTCTCTCTCTTTTTCGGTGGTGCGTGCAGGTCCTGGACCACGGCATCTCGACGGAGCTGATGGACAAGGTGGAGAAGATGACCAAGG DNA 2: CCTTGGTCATCTTCTCCACCTTGTCCATCAGCTCCGTCGAGATGCCGTGGTCCAGGACCTGCACGCACCACCGAAAAAGAGAGAGAGAGAGAGAGAGAGAGCAGATGAGCATTAAGGATAGATCGATAAGGAGATTTATCCTGTCAGATTATGCCATGTTAGTGCTGTGTATTCACCTGGAAGAA |  | binds |  |  |
| TaBEL-A1 probe (dsDNA) DNA 1: GCTTGCGTGTGTGTGCATCAGAGAGAAAGAGAGAGAGAGAGAGGCCTGCCGCCCAAGATCTCTCTTGATCAGTGCCGAGATCATCAATCAGGGGGGCCTGCCATCCAAGTGGGCATCTCCATTTTTCTTCCTCCTCGAGCTGGTTTCCGAGCCTGATAAAACCACCCTCCCCGGCCTCGCTCAACTGCTCCCCAGC DNA 2: GCTGGGGAGCAGTTGAGCGAGGCCGGGGAGGGTGGTTTTATCAGGCTCGGAAACCAGCTCGAGGAGGAAGAAAAATGGAGATGCCCACTTGGATGGCAGGCCCCCCTGATTGATGATCTCGGCACTGATCAAGAGAGATCTTGGGCGGCAGGCCTCTCTCTCTCTCTCTTTCTCTCTGATGCACACACACGCAAGC |  | binds |  |  |
